Experimental data: patent publication US20230087785A1, “Leucine-Rich Repeat Kinase 2 Allosteric Modulators” (VIB VZW, priority 2020, published 2023)

Tests used:
[1] = target: T1, Full-length human Leucine-rich repeat kinase 2 (LRRK2), N-terminal Strep/Flag (SF) tagged (human, UniProt Q5S007 1-2527); test: kinase kinetics (PhosphoSens, varied ATP), global fit to mixed inhibition; affinity for apo-LRRK2; enzyme kinetics, mixed inhibition fit; apo (non-ATP-bound) LRRK2
T1 construct: Purified from HEK293T cells in presence of GDP or GTPγS; also called FL LRRK2; FL-LRRK2
Experimental: (§1) Full Michaelis-Menten curves (relative velocity versus [ATP]) in presence of different Nb concentrations were collected at 30° C. in a buffer consisting of 50 mM HEPES pH 7.5, 0.1% Brij-35, 50 mM NaCl, 10 mM MgCl₂ and […], using a fixed concentration of AQT0615 (10 μM) and varying concentrations of ATP. The LRRK2 concentration was chosen such that initial rates (linear fluorescence versus time curves) were obtained, and LRRK2, ATP and the Nbs were preincubated at 4° C. for 30 min prior to starting the reaction by adding the peptide substrate. The Michaelis-Menten curves for the different Nb concentrations were globally fit on a mixed-inhibition model using GraphPad Prism, according to the equation: […]

[2] = target: T1, Full-length human Leucine-rich repeat …; test: cell-based or functional assay
[3] = target: T1, Full-length human Leucine-rich repeat …; test: BLI; Nb on LRRK2 trapped on streptavidin sensor via biotinylated Nb40; steady-state fit; BLI; LRRK2 trapped on the sensor via biotinylated Nb40
Experimental: To determine the binding affinity (dissociation constant KD) of the ten Nbs for LRRK2, two methods were used in parallel: microscale thermophoresis (MST) and bio-layer interferometry (BLI). For the MST experiment, we site-specifically labeled the ten Nbs with a m-TAM RA fluorophore at its C-terminus, using sortase-mediated coupling, and then titrated increasing amounts of full-length LRRK2 to these Nbs (FIGS. 13A-13E).
Biolayer interferometry (BLI) measurements were performed using an Octet Red96 (Forte Bio, Inc.) system in a buffer containing 50 mM HEPES pH 8.0, 150 mM NaCl, 10 mM MgCl₂, 5% glycerol, 0.1% BSA, 0.05% Tween, at 25° C. and with shaking speed 1000 rpm. […] The biotinylated Nbs were first loaded on pre-equilibrated SA biosensors at a concentration of 5 μg/mL. This Nb-loaded sensor was then used to trap FL-LRRK2 from a 50 nM LRRK2 solution. […] All experiments were performed in triplicate.

[4] = target: T1, Full-length human Leucine-rich repeat …; test: kinase kinetics (PhosphoSens, varied ATP), global fit to mixed inhibition; ATP-bound LRRK2; enzyme kinetics, mixed inhibition fit; ATP-bound LRRK2
Experimental: as §1

[5] = target: T2, LRRK2 COR-B construct (C-terminal part of the COR domain), His6-MBP tagged (human, UniProt Q5S007 1672-1840); test: ELISA, antigen coated on the plate, purified Nb detected via its EPEA tag
T2 construct: also called (MBP-)COR-B; not shown: N-terminal His6-MBP-tag of pDEST-566
Procedure, shortened: (§2)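 The RocCOR, Roc, COR-B and kinase-WD40 constructs were coated side by side on one ELISA plate. Binding of each purified nanobody to every coated construct was then detected.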

[6] = target: T3, LRRK2 RocCOR domain construct (human, UniProt Q5S007 1334-1840); test: as above
T3 construct: A second construct (residues 1293-1840, N-terminal His6-MBP) was used in certain screening experiments; not shown: N-terminal Twin-Strep-tag; C-terminal His10-tag
T3 sequence: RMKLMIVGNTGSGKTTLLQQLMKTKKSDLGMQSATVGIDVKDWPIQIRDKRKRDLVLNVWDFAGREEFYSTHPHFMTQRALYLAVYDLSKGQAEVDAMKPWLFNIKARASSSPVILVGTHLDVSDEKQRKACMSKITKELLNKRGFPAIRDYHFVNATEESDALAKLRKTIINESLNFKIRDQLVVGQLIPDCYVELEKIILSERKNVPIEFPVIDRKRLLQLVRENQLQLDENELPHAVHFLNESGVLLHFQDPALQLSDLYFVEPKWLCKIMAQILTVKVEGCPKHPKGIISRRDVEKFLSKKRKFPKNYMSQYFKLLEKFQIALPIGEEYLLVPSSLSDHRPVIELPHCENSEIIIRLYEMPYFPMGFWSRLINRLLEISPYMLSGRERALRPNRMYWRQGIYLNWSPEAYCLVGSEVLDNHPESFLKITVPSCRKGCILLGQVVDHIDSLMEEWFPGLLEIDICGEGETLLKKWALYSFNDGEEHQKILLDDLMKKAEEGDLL
Procedure, shortened: as §2

[7] = target: T4, LRRK2 Roc domain construct (human, UniProt Q5S007 1329-1520); test: as above
T4 construct: not shown: N-terminal His6-tag of pET-28a
T4 sequence: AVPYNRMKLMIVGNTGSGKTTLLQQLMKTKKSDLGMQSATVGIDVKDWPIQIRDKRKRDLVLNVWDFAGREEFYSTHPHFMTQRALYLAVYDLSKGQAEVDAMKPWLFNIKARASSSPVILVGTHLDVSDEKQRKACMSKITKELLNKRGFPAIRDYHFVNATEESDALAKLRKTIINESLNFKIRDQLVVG
Procedure, shortened: as §2

Ki [1]: 9 µM | IC50 of in vitro LRRK2 kinase activity (AQT0615 peptide, PhosphoSens, 1 mM ATP) [2]: ~65 µM | Kd [3]: 0.065 µM | Ki [4]: 66 µM | binding result [5]: no binding (tested: not given) | binding result [6]: no binding (tested: not given) | binding result [7]: no binding (tested: not given)
B1: Nb23 (CA13612) (VHH)
VHH: QVQLVESGGGLVQAGGSLRLSCAASGRTFSRYTMGWFRQAPGKDREFVARITTSGAVTTYADSAKGRFTISRDNAKNTVYLQMNTLKPEDTAVYYCAAGQGQLSSQSRFVDYWGQGTQVTVSS
